Measurements taken from publication PMC9886983, “Mechanism of regulation of the Helicobacter pylori Cagβ ATPase by CagZ” (Nature Communications, 2023).

Tests used:
[1] = biological target: Cagβ-AAD1 N365A (Helicobacter pylori 26695); test: ITC; ITC-200 at 25 °C; 20 mM Tris pH 8.0, 150 mM NaCl; Cagβ proteins (20 µM) in the cell, CagZ proteins or peptides (200 µM) in the syringe
[2] = biological target: Cagβ-AAD1 E350A (Helicobacter pylori 26695); test: as above
[3] = biological target: Cagβ-AAD1 S453A (Helicobacter pylori 26695); test: as above
[4] = biological target: Cagβ-AAD1 (all-alpha domain of Cagβ, residues 289–488) (Helicobacter pylori 26695) (UniProt O25260); test: as above
[5] = biological target: Cagβ-AAD1 D356A (Helicobacter pylori 26695); test: as above
[6] = biological target: Cagβ-AAD1 N449A (Helicobacter pylori 26695); test: as above
[7] = biological target: Cagβ-AAD1 E396A (Helicobacter pylori 26695); test: as above
[8] = biological target: Cagβ-AAD1 D309A (Helicobacter pylori 26695); test: as above
[9] = biological target: Cagβ-AAD1 Y374F (Helicobacter pylori 26695); test: as above
[10] = biological target: Cagβ-AAD1 R375A (Helicobacter pylori 26695); test: as above
[11] = biological target: Cagβ-AAD1 K388A (Helicobacter pylori 26695); test: as above
[12] = biological target: Cagβ-AAD1 E314A (Helicobacter pylori 26695); test: as above
[13] = biological target: Cagβ-AAD1 N452A (Helicobacter pylori 26695); test: as above
[14] = biological target: Cagβ1 (soluble region of Cagβ, residues 166–748) (Helicobacter pylori 26695) (UniProt O25260); test: mass photometry; Cagβ1/CagZ complex (co-expressed, co-purified) at 0.06 µM; OneMP instrument (Refeyn)
[15] = biological target: Cagβ-AAD1 N361A (Helicobacter pylori 26695); test: ITC; ITC-200 at 25 °C; 20 mM Tris pH 8.0, 150 mM NaCl; Cagβ proteins (20 µM) in the cell, CagZ proteins or peptides (200 µM) in the syringe
[16] = biological target: Cagβ-AAD1 E462A (Helicobacter pylori 26695); test: as above
[17] = biological target: Cagβ-AAD1 T338A (Helicobacter pylori 26695); test: as above
[18] = biological target: Cagβ-AAD1 D335A (Helicobacter pylori 26695); test: as above
[19] = biological target: Cagβ-AAD1 F358A (Helicobacter pylori 26695); test: as above
[20] = biological target: T1, Cagβ-AAD1 (residues 289-488), wild type (Helicobacter pylori 26695, UniProt O25260 289-488); test: ITC; ITC-200, 25 °C, 20 mM Tris pH 8.0, 150 mM NaCl; Cagβ proteins (20 µM) in the cell, CagZ proteins (200 µM) in the syringe; conditions: both partners purified
T1 construct: Cagβ (HP0524, Cag5) of Helicobacter pylori 26695, residues 289-488, holds the all-alpha domain (AAD); also called Cagβ-AAD1_WT; Cagβ-AAD1 (289-488); source: E. coli BL21 star (DE3), purified (Ni-NTA, TEV, second Ni-NTA, SEC); not shown: His6, N-terminal, cleaved; TrxA, N-terminal, cleaved
T1 sequence: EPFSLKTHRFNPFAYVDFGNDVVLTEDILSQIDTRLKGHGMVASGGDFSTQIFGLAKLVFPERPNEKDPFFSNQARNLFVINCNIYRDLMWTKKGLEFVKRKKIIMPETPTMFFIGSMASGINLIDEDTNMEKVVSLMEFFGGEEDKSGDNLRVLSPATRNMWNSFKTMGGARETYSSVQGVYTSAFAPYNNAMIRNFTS

[21] = biological target: T2, Cagβ-AAD1 (all-alpha domain of Cagβ, residues 289–488) (Helicobacter pylori 26695, UniProt O25260 289-488); test: ITC; ITC-200 at 25 °C; 20 mM Tris pH 8.0, 150 mM NaCl; Cagβ proteins (20 µM) in the cell, CagZ proteins or peptides (200 µM) in the syringe; conditions: both partners purified
T2 construct: Cagβ (HP0524, Cag5) of H. pylori 26695, residues 289-488, holding the all-alpha domain (AAD); source: E. coli BL21 star (DE3), purified (Ni-NTA, TEV cleavage, second Ni-NTA, SEC); not shown: His6, N-terminal, cleaved; TrxA, N-terminal, cleaved
T2 sequence: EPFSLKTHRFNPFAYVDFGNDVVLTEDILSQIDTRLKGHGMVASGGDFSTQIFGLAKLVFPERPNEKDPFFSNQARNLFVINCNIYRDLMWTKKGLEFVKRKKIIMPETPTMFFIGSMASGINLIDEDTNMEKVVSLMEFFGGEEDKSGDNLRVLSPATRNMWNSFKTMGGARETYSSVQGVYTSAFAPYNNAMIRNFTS

[22] = biological target: T3, CagZ (residues 2-199), wild type (Helicobacter pylori 26695, UniProt B5Z6P9 2-199); test: ITC; ITC-200, 25 °C, 20 mM Tris pH 8.0, 150 mM NaCl; Cagβ proteins (20 µM) in the cell, CagZ proteins (200 µM) in the syringe; conditions: both partners purified
T3 construct: CagZ of Helicobacter pylori 26695, residues 2-199; also called CagZ-WT; source: E. coli BL21 star (DE3), purified (Ni-NTA, TEV, second Ni-NTA, SEC); not shown: His6, N-terminal, cleaved; TrxA, N-terminal, cleaved
T3 sequence: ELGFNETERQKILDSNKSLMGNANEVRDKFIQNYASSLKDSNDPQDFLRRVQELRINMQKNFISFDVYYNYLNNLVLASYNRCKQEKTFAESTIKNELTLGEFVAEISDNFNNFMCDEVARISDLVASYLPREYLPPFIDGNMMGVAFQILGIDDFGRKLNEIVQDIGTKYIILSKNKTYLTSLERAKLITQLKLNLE

With CagZ N162A (natural protein) the Kd [1] was 40 nM.

Work on CagZ R159A (natural protein) yielded a Kd [2] of 40 nM.

For CagZ S124A (natural protein), the Kd [3] was 20 nM.

Work on CagZ R187A (natural protein) yielded a Kd [4] of 16900 nM.

In the case of CagZ Q150A (natural protein), the Kd [5] is reported as 50 nM.

With “CagZ (residues 2–199), expressed separately from pET-32a (from UniProt O25261 2-199) (natural protein)” the Kd [6] was 20 nM, the Kd [7] was 40 nM and the Kd [8] was 70 nM. For the same molecule, the Kd [9] was 20 nM, the Kd [10] was 1460 nM and the Kd [11] was 40 nM.

CagZ K85A (natural protein) gave a Kd [12] of 80 nM.

Molecule CagZ Y81F (natural protein) has a Kd [12] of 90 nM.

With CagZ D125A (natural protein) the Kd [13] was 60 nM.

In the case of CagZ E199A (natural protein), the Kd [4] is reported as 40 nM.

Work on CagZ N178A/Y181A (natural protein) yielded a Kd [4] of 1500 nM.

Molecule “CagZ co-expressed with Cagβ1 from pET-28a (natural protein)” has a percent of the protein in the 1:1 complex [14] of 88% and a stoichiometry N [14] of 1.

CagZ D155A (natural protein) was tested, and the Kd [15] was 60 nM.

CagZ R133A (natural protein) showed a Kd [16] of 20 nM.

Work on CagZ S184A (natural protein) yielded a Kd [4] of 70 nM.

For CagZ Y181A (natural protein), the Kd [4] was 560 nM and the Kd [10] was 35700 nM.

Molecule CagZ T170A (natural protein) has a Kd [17] of 90 nM and a Kd [18] of 90 nM.

With CagZ F149A (natural protein) the Kd [19] was 410 nM.

CagZ N178A (natural protein) was tested, and the Kd [4] was 150 nM and the Kd [10] was 8770 nM.

B1: CagZ (residues 2-199) E199A (natural protein)
chain: ELGFNETERQKILDSNKSLMGNANEVRDKFIQNYASSLKDSNDPQDFLRRVQELRINMQKNFISFDVYYNYLNNLVLASYNRCKQEKTFAESTIKNELTLGEFVAEISDNFNNFMCDEVARISDLVASYLPREYLPPFIDGNMMGVAFQILGIDDFGRKLNEIVQDIGTKYIILSKNKTYLTSLERAKLITQLKLNLA
notes: CagZ of Helicobacter pylori 26695, residues 2-199, with E199A; source: E. coli BL21 star (DE3), purified as the wild type but without TEV protease treatment; not shown: His6, N-terminal, kept; TrxA, N-terminal, kept
B1 was tested, and the Kd [20] was about 50 nM.

B2: CagZ (residues 2–199), expressed separately from pET-32a (natural protein)
chain: ELGFNEAERQKILDSNSSLMGNANEVRDKFIQNYASSLKDSNDPQDFLRRVQELRINMQKNFISFDVYYNYLNNLVLASYNRCKQEKTFAESTIKNELTLGEFVAEISDNFNNFMCDEVARISDLVASYLPREYLPPFIDGNMMGVAFQILGIDDFGRKLNEIVQDIGTKYIILSKNKTYLTSLERAKLITQLKLNLE
notes: CagZ of H. pylori 26695, residues 2-199; also called WT; full-length CagZ; source: E. coli BL21 star (DE3), purified (Ni-NTA, TEV cleavage, second Ni-NTA, SEC); not shown: His6, N-terminal, cleaved; TrxA, N-terminal, cleaved
In the case of B2, the Kd [21] is reported as 90 nM.

B3: CagZ-24 (peptide of the CagZ C-terminal tail, residues 176–199) (peptide)
peptide: SKNKTYLTSLERAKLITQLKLNLE
notes: CagZ of H. pylori, C-terminal tail, residues 176-199; source: synthetic peptide (Genscript)
With B3 the Kd [21] was 330 nM.

B4: CagZ-20 (peptide of the CagZ C-terminal tail, residues 176–195) (peptide)
peptide: SKNKTYLTSLERAKLITQLK
notes: CagZ of H. pylori, C-terminal tail, residues 176-195; source: synthetic peptide (Genscript)
In the case of B4, the Kd [21] is reported as 42000 nM.

B5: Cagβ-AAD3 (residues 299-488) (domain or fragment)
chain: NPFAYVDFGNDVVLTEDILSQIDTRLKGHGMVASGGDFSTQIFGLAKLVFPERPNEKDPFFSNQARNLFVINCNIYRDLMWTKKGLEFVKRKKIIMPETPTMFFIGSMASGINLIDEDTNMEKVVSLMEFFGGEEDKSGDNLRVLSPATRNMWNSFKTMGGARETYSSVQGVYTSAFAPYNNAMIRNFTS
notes: Cagβ (HP0524, Cag5) of Helicobacter pylori 26695, residues 299-488, holds the all-alpha domain (AAD); also called Cagβ-AAD3 (299-488); source: E. coli BL21 star (DE3), purified (Ni-NTA, TEV, second Ni-NTA, SEC); not shown: His6, N-terminal, cleaved; TrxA, N-terminal, cleaved
B5 showed a Kd [22] of 190 nM.
